B1: Co-chaperonin GroES, P0A6F9 (parent)
chain: MNIRPLHDRVIVKRKEVETKSAGGIVLTGSAAAKSTRGEVLAVGNGRILENGEVKPLDVKVGDIVIFNDGYGVKSEKIDNEEVLIMSESDILAIVEA

Variants of: B1
Conditions: Escherichia coli (strain K12); pH 7.8; 25 °C; GdnHCl; Chromatography; Tris-HCl 5 mM; KCl 200 mM; reversible: yes; structure 1AON; whole UniProt chain shown

| Variant | ddG of mutation (higher = less stable) | denaturant m value | unfolding free energy |
| --- | --- | --- | --- |
| V95C | 0.3 kcal/mol | 2.2 kcal/mol/M | 2 kcal/mol |
| I3C | 0.4 kcal/mol | 2.4 kcal/mol/M | 1.9 kcal/mol |
| I3W | 0.4 kcal/mol | 2 kcal/mol/M | 1.9 kcal/mol |

From FireProtDB (doi:10.1016/j.jmb.2004.09.082)
